19 substances from the Human Domainome abundance scans (Beltran et al. 2025) can be followed below.

± gives the uncertainty stated by the source.

The nature of the series: abundance fitness (aPCA) (normalised: wild type 0, dead -1); higher = more abundant; growth selection in yeast, the domain comes from the species named. To be noted: Homo sapiens.
As for Gamma-crystallin D G100C, P07320, the abundance fitness was -0.117 ± 0.096.
Gamma-crystallin D G100D, P07320 yielded an abundance fitness of 0.069 ± 0.11.
Take Gamma-crystallin D G100E, P07320: the abundance fitness is -0.069 ± 0.085.
Next, Gamma-crystallin D G100F, P07320: -0.779 ± 0.17; Gamma-crystallin D G100H, P07320: -0.561 ± 0.28; Gamma-crystallin D G100I, P07320: -0.826 ± 0.36.
To Gamma-crystallin D G100K, P07320 belongs -0.325 ± 0.17.
Gamma-crystallin D G100L, P07320 returned an abundance fitness of -0.266 ± 0.075.
Next, Gamma-crystallin D G100M, P07320: -0.356 ± 0.14; Gamma-crystallin D G100Q, P07320: -0.565 ± 0.17.
Next, Gamma-crystallin D G100R, P07320: -0.437 ± 0.073; Gamma-crystallin D G100T, P07320: -0.889 ± 0.45; Gamma-crystallin D G100V, P07320: -1.13 ± 0.16.
To Gamma-crystallin D G100Y, P07320 belongs -0.839 ± 0.32; to Gamma-crystallin D I103E, P07320, 0.037 ± 0.13.
Gamma-crystallin D I103H, P07320 gave an abundance fitness of -0.186 ± 0.088.
Substance Gamma-crystallin D I103Q, P07320 gave an abundance fitness of -0.03 ± 0.13.
Next, Gamma-crystallin D I103R, P07320: 0.055 ± 0.064.
To Gamma-crystallin D L112E, P07320 belongs -0.383 ± 0.045.
